Molecular target: recombinant EBV LMP2A N-terminal cytoplasmic domain (LMP2A-NCD), His6-tagged (Epstein-Barr virus) (UniProt P13285)
Experiment: SPR; BIAcore T200; LMP2A-NCD immobilised on Sensor Chip CM5; affibodies flowed at 2.5-20 μM; global fit, one-to-one Langmuir binding model

Chain of UniProt P13285 (P13285 1-119): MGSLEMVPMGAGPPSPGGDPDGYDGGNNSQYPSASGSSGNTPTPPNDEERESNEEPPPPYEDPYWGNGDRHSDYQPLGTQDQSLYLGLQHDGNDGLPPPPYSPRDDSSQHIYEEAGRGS

## ZWT affibody (wild SPA-Z scaffold) (designed binder)
  koff: 5.96e-05 s⁻¹
